In assay [1] the target is T1, human Endosialin expressed by Sjsa-1 cells (human, UniProt Q9HCU0 18-757).
T1 construct: Endogenous Endosialin on human cell lines; also called Endosialin present on the cell plasma membrane; Endosialin on cell surface (Sjsa-1, T/G HA-VSMC, A673, SKNAS, A375 cells)
T1 sequence: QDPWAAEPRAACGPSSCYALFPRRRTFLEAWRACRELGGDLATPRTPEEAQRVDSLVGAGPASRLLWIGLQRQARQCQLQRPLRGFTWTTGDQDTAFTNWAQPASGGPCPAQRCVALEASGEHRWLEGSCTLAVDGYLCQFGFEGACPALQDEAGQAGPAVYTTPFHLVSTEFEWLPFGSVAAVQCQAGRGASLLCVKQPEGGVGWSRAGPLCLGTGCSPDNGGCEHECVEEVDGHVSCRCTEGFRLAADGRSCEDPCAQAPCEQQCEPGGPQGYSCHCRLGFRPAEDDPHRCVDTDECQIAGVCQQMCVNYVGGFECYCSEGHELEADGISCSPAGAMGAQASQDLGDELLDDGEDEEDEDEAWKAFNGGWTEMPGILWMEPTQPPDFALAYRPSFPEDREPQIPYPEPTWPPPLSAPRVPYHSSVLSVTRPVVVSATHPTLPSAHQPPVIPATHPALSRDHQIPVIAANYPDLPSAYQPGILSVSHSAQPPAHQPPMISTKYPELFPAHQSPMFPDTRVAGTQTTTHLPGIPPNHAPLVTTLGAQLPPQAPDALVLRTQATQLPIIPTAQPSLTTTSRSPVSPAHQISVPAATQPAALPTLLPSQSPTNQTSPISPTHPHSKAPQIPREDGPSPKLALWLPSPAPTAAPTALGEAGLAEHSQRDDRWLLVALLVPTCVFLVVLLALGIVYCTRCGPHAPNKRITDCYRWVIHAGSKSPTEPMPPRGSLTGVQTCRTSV
As to the kind of experiment: flow cytometry on Sjsa-1 cells. How it is done:
(§1) Materials and Methods: (FIG. 2). (A) Ninety-six well plates (NUNC Maxisorp modules) were pre-coated with human recombinant Endosialin (1 μg/ml) overnight at 4° C. After blocking with 1% BSA in PBS+0.1% Tween-20 for 1 hour at 4° C., mMP-E-8.3, cMP-E-8.3, hMP-E-8.3 and a commercial antibody against Endosialin at the indicated concentration were added and incubated for 2 hours at room temperature. After several washes with PBS+0.1% Tween-20, a goat anti-mouse or anti-human IgG-HRP solution was added to each well and incubated for 1 hour at 37° C. After washes, stabilized chromogen was added to each well for at least 10 minutes in the dark, then the reaction was stopped with the addition of 1 N H₂SO4 and the absorbance was read at 450 nm with an ELISA reader. (B) Sjsa-1 human osteosarcoma cell line were stained with 1 μg/ml of mMP-E-8.3 antibody, or cMP-E-8.3 and hMP-E-8.3 at 100 ng/ml (blue line) and 1 ug/ml (green line) or with 1 μg/ml of a commercial antibody against Endosialin on ice for 30 minutes after incubation with a Goat anti-mouse/anti-human Alexa-488 conjugated antibodies for 1 hour on ice, cells were analyzed by flow cytometer (FACS). (C) Sjsa-1 human osteosarcoma cells were grown on glass coverslips for 24 hours. […]
(A flow cytometer gives signals particle by particle.)

Assay [2] deals with T2, human recombinant Endosialin (human, UniProt Q9HCU0 18-687, limits assumed).
T2 construct: Coated on ELISA plates at 1 ug/ml; also called TEM-1; TEM1
T2 sequence: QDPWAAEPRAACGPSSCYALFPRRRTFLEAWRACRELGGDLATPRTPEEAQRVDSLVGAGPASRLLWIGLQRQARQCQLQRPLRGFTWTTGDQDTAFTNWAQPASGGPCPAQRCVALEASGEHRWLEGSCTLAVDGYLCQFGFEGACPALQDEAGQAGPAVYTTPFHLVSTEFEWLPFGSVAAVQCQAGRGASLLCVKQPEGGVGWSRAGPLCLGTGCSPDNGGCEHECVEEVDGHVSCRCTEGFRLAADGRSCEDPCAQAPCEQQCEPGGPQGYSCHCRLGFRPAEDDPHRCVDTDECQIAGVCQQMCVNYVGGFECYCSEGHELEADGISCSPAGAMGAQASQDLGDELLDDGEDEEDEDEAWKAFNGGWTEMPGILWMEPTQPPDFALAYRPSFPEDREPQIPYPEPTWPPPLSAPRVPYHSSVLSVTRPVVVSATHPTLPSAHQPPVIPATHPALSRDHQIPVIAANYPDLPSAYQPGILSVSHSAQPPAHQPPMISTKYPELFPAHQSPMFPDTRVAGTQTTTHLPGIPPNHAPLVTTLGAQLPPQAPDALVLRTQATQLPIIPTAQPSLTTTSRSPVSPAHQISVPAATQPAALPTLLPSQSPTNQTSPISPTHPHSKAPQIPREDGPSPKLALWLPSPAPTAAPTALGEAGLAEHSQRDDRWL
Description: ELISA, plate coated with recombinant Endosialin. How it is done: as §1
(In general: In an ELISA, binding on a coated surface is turned into a signal by an enzyme label.)

B1: cMP-E-8.3 (antibody, V domains shown)
VH: QVQLQESGPGLVAPSQSLSITCTVSGFSLTGYGVNWVRQPPEKGLEWLGMIWVDGSTDYNSALKSRLNISKDKSKSQVFLKMNSLQTDDTARYYCARGGYGAMDYWGQGTSVTVSS
VL: DIQMNQSPSSLSASLGDTITITCHASQNINVWLTWYQQKPGNIPKLLIYKASNLHTGVPSRFSGSGSGTGFTLTISSLQPEDIATYYCQQGQSYPWTFGGGTKLEIKR
notes: also called chimeric cMP-E-8.3; chimerized version of mMP-E-8.3
On to B1, for which the binding result in assay [1] and in assay [2] was “binds” each time.

These data come from patent US20190160180A1 (FUSION PHARMACEUTICALS, published 2019).
